Legend:
Experiment in all cases: cell-based or functional assay
integrin receptors = biological target: integrin receptors
α5β1 integrin = α5β1 integrin (UniProt P08648)
α5 integrin subunit = α5 integrin subunit (UniProt P08648)
αv integrin = αv integrin (UniProt P06756)
Chain of UniProt P06756 (P06756 31-1048 limits assumed): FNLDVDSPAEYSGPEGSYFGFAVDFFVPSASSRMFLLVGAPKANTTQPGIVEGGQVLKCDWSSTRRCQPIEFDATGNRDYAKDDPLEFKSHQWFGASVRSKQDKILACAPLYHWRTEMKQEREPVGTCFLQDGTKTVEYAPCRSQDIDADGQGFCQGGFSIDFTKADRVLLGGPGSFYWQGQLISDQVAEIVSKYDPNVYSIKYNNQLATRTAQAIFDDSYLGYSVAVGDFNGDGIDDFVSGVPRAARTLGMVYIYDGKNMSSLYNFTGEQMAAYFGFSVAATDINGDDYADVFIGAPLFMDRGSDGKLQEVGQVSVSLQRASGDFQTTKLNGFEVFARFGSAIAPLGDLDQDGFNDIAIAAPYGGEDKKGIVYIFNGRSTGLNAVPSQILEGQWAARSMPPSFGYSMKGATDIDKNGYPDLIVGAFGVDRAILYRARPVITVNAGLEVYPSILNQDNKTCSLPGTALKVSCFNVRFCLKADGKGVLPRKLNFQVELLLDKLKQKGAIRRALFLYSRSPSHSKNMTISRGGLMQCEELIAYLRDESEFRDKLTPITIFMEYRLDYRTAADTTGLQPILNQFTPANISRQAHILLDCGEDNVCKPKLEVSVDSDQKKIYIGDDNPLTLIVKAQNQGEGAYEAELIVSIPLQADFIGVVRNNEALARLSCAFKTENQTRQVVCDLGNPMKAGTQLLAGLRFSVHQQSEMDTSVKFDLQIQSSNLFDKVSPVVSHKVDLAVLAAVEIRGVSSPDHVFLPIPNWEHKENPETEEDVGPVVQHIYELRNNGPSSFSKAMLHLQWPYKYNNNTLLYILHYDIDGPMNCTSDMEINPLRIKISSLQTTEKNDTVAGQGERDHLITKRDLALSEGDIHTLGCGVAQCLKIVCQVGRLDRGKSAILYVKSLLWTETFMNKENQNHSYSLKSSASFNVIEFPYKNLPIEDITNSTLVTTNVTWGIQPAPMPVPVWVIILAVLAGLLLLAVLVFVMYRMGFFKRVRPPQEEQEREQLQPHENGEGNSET

hMPV F protein mutant R329K was tested, and the Fusion (content mixing fusion assay, percent of wild type F) (integrin receptors) was 72%.
hMPV F protein mutant D331A showed a Fusion (content mixing fusion assay, percent of wild type F) (integrin receptors) of 58%.
hMPV F protein mutant D331E showed a Fusion (content mixing fusion assay, percent of wild type F) (integrin receptors) of 118%.
Work on hMPV F protein mutant G330S yielded a Fusion (content mixing fusion assay, percent of wild type F) (integrin receptors) of 9%.
hMPV F protein mutant R329A was tested, and the Fusion (content mixing fusion assay, percent of wild type F) (integrin receptors) was 13%.
Work on “hMPV F protein (wild type, strain NL/1/00), expressed from pCAGGS-F” yielded an inhibition of cell-cell fusion (content-mixing fusion assay) by anti-α5β1 antibody (α5β1 integrin) of 80%, a Fusion (content mixing fusion assay, percent of wild type F) (integrin receptors) of 100% and a reduction of fusion activity (syncytium count) after siRNA knockdown of α5 (α5 integrin subunit) of 80%. The inhibition of cell-cell fusion (content-mixing fusion assay) by anti-αv antibody (αv integrin) was 80% and the reduction of fusion activity (syncytium count) after siRNA knockdown of αv (αv integrin) was 60%.
hMPV F protein mutant G330A was tested, and the Fusion (content mixing fusion assay, percent of wild type F) (integrin receptors) was 20%.
In the case of hMPV F protein mutant D331R, the Fusion (content mixing fusion assay, percent of wild type F) (integrin receptors) is reported as 107%.
For hMPV F protein mutant R329D, the Fusion (content mixing fusion assay, percent of wild type F) (integrin receptors) was 13%.

Reference: patent US20160039884A1
